For this assay, the target named is mouse PIEZO1-S2472E mutant (mouse) (UniProt E2JF22). Put plainly: cryo-EM structure.

One may read the stoichiometry N as a count of units in the complex or per binding partner. In the case of “mouse PIEZO1-S2472E mutant, E2JF22 1-2547”, the stoichiometry N stood at 3.

These data come from publication doi:10.1101/2023.09.28.559900.
